Results taken from US20180155451A1 (published 2018).

Biological target: T1, FcγRIa (human, UniProt P12314 16-292)
T1 construct: extracellular domain; also called FcgRI; CD64
Assay: SPR; vs GpH7-B3/GpL16-k0=100

T1 sequence (P12314 16-292): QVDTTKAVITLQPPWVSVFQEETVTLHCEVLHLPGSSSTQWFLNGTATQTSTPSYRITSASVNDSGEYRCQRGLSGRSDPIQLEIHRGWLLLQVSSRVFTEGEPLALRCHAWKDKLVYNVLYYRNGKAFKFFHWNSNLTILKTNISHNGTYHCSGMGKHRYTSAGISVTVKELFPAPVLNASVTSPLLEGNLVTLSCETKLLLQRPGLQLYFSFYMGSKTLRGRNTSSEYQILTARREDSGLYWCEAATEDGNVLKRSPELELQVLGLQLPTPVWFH

B1: GpH7-B3 variant E333_09D/GpL16-k0 (antibody, human IgG1, kappa)
heavy: not shown
light: DIVMTQSPLSLPVTPGEPASISCQASESLVHSNRNTYLHWYLQKPGQSPQLLIYKVSNRFSGVPDRFSGSGSGTDFTLKISRVEAEDVGVYYCSQNTHVPPTFGQGTKVEIERTVAAPSVFIFPPSDEQLKSGTASVVCLLNNFYPREAKVQWKVDNALQSGNSQESVTEQDSKDSTYSLSSTLTLSKADYEKHKVYACEVTHQGLSSPVTKSFNRGEC
notes: homodimerized; also called Ho Ab E333_09D
Ho/Con_1a: 103 % of control

B2: GpH7-B3 variant P238_06M/GpL16-k0 (antibody, human IgG1, kappa)
heavy: not shown
light: B1 light
notes: homodimerized; also called Ho Ab P238_06M
Ho/Con_1a: 100 % of control

B3: GpH7-B3 variant Q295_02A/GpL16-k0 (antibody, human IgG1, kappa)
heavy: not shown
light: B1 light
notes: homodimerized; also called Ho Ab Q295_02A
Ho/Con_1a: 104 % of control

B4: GpH7-B3 variant K334_10E/GpL16-k0 (antibody, human IgG1, kappa)
heavy: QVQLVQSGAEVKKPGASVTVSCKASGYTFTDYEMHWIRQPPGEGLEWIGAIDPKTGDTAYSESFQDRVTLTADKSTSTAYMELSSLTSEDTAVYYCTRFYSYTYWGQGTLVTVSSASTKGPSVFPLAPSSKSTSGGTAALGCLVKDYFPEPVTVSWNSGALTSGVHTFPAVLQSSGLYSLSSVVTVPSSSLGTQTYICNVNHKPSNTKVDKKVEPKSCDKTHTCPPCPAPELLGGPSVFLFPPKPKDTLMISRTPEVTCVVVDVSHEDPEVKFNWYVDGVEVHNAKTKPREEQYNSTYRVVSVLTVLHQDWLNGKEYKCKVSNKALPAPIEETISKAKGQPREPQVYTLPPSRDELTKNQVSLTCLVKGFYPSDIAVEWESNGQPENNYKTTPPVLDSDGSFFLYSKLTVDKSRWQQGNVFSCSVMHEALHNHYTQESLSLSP
light: B1 light
notes: homodimerized; also called Ho Ab K334_10E
Ho/Con_1a: 107 % of control

B5: GpH7-B3 variant L328_19Q/GpL16-k0 (antibody, human IgG1, kappa)
heavy: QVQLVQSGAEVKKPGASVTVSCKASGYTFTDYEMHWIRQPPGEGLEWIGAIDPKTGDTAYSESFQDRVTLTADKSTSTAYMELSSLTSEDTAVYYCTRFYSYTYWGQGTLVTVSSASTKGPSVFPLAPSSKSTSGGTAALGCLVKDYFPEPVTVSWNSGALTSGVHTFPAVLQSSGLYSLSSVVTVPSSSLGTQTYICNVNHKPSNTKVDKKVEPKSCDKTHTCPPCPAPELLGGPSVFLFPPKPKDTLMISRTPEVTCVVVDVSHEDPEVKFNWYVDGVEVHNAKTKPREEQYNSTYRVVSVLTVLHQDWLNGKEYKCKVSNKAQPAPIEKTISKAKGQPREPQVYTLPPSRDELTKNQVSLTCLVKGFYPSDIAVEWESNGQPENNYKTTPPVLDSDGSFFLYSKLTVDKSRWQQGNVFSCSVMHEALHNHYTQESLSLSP
light: B1 light
notes: homodimerized; also called Ho Ab L328_19Q
Ho/Con_1a: 99.3 % of control

B6: GpH7-B3 variant L234_06M/GpL16-k0 (antibody, human IgG1, kappa)
heavy: not shown
light: B1 light
notes: homodimerized; also called Ho Ab L234_06M
Ho/Con_1a: 96.5 % of control

B7: GpH7-B3 variant L234_15Y/GpL16-k0 (antibody, human IgG1, kappa)
heavy: not shown
light: B1 light
notes: homodimerized; also called Ho Ab L234_15Y; GpH7-B3-01-15Y/GpL16-k0
Ho/Con_1a: 98.9 % of control

B8: GpH7-B3 variant L234_10E/GpL16-k0 (antibody, human IgG1, kappa)
heavy: not shown
light: B1 light
notes: homodimerized; also called Ho Ab L234_10E; GpH7-B16/GpL16-k0
Ho/Con_1a: 79.6 % of control

B9: GpH7-B3 variant P271_11K/GpL16-k0 (antibody, human IgG1, kappa)
heavy: not shown
light: B1 light
notes: homodimerized; also called Ho Ab P271_11K
Ho/Con_1a: 101 % of control

B10: GpH7-B3 variant E333_15Y/GpL16-k0 (antibody, human IgG1, kappa)
heavy: not shown
light: B1 light
notes: homodimerized; also called Ho Ab E333_15Y
Ho/Con_1a: 100 % of control

B11: GpH7-B3 variant I336_01G/GpL16-k0 (antibody, human IgG1, kappa)
heavy: not shown
light: B1 light
notes: homodimerized; also called Ho Ab I336_01G
Ho/Con_1a: 104 % of control

B12: GpH7-B3 variant P271_03V/GpL16-k0 (antibody, human IgG1, kappa)
heavy: not shown
light: B1 light
notes: homodimerized; also called Ho Ab P271_03V
Ho/Con_1a: 102 % of control

B13: GpH7-B3 variant P271_02A/GpL16-k0 (antibody, human IgG1, kappa)
heavy: not shown
light: B1 light
notes: homodimerized; also called Ho Ab P271_02A
Ho/Con_1a: 102 % of control

B14: GpH7-B3 variant K326_12R/GpL16-k0 (antibody, human IgG1, kappa)
heavy: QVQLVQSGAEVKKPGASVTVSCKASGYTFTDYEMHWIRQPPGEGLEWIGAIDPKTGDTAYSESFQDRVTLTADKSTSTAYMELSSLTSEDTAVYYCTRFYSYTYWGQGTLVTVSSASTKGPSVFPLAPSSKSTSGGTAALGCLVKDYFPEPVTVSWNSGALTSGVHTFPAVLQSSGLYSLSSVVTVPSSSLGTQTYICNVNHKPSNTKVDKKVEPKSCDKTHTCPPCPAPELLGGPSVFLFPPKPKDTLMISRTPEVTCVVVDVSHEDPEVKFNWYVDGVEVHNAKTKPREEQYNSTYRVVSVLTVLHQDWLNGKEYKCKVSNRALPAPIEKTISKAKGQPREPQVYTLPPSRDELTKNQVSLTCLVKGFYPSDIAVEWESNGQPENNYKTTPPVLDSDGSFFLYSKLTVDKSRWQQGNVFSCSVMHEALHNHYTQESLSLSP
light: B1 light
notes: homodimerized; also called Ho Ab K326_12R
Ho/Con_1a: 100 % of control

B15: GpH7-B3 variant K334_12R/GpL16-k0 (antibody, human IgG1, kappa)
heavy: not shown
light: B1 light
notes: homodimerized; also called Ho Ab K334_12R
Ho/Con_1a: 102 % of control

B16: GpH7-B3 variant I336_04F/GpL16-k0 (antibody, human IgG1, kappa)
heavy: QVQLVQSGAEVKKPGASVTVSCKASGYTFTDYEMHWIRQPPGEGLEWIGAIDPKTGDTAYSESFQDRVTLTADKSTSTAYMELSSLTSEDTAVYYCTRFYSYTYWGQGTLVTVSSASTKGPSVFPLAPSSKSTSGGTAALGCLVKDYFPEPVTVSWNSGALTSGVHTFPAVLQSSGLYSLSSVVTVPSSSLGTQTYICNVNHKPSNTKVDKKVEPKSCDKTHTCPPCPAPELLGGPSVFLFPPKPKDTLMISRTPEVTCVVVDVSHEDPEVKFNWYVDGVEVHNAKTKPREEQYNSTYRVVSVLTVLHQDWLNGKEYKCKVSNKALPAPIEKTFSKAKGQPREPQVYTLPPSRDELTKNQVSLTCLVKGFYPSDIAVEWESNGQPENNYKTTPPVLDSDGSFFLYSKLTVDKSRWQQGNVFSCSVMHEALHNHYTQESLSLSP
light: B1 light
notes: homodimerized; also called Ho Ab I336_04F
Ho/Con_1a: 104 % of control

B17: GpH7-B3 variant I336_03V/GpL16-k0 (antibody, human IgG1, kappa)
heavy: not shown
light: B1 light
notes: homodimerized; also called Ho Ab I336_03V
Ho/Con_1a: 105 % of control

B18: GpH7-B3 variant P271_07I/GpL16-k0 (antibody, human IgG1, kappa)
heavy: not shown
light: B1 light
notes: homodimerized; also called Ho Ab P271_07I
Ho/Con_1a: 102 % of control

B19: GpH7-B3 variant L328_20W/GpL16-k0 (antibody, human IgG1, kappa)
heavy: not shown
light: B1 light
notes: homodimerized; also called Ho Ab L328_20W
Ho/Con_1a: 99.9 % of control

B20: GpH7-B3 variant E333_16H/GpL16-k0 (antibody, human IgG1, kappa)
heavy: not shown
light: B1 light
notes: homodimerized; also called Ho Ab E333_16H
Ho/Con_1a: 99.1 % of control

B21: GpH7-B3 variant L328_14T/GpL16-k0 (antibody, human IgG1, kappa)
heavy: not shown
light: B1 light
notes: homodimerized; also called Ho Ab L328_14T
Ho/Con_1a: 98.6 % of control

B22: GpH7-B3 variant E333_12R/GpL16-k0 (antibody, human IgG1, kappa)
heavy: not shown
light: B1 light
notes: homodimerized; also called Ho Ab E333_12R
Ho/Con_1a: 94.2 % of control

B23: GpH7-B3 variant P271_04F/GpL16-k0 (antibody, human IgG1, kappa)
heavy: not shown
light: B1 light
notes: homodimerized; also called Ho Ab P271_04F
Ho/Con_1a: 100 % of control

B24: GpH7-B3 variant G236_02A/GpL16-k0 (antibody, human IgG1, kappa)
heavy: not shown
light: B1 light
notes: homodimerized; also called Ho Ab G236_02A
Ho/Con_1a: 92.4 % of control

B25: GpH7-B3 variant P271_13S/GpL16-k0 (antibody, human IgG1, kappa)
heavy: not shown
light: B1 light
notes: homodimerized; also called Ho Ab P271_13S
Ho/Con_1a: 101 % of control

B26: GpH7-B3 variant K326_15Y/GpL16-k0 (antibody, human IgG1, kappa)
heavy: not shown
light: B1 light
notes: homodimerized; also called Ho Ab K326_15Y
Ho/Con_1a: 101 % of control

B27: GpH7-B3 variant I336_10E/GpL16-k0 (antibody, human IgG1, kappa)
heavy: not shown
light: B1 light
notes: homodimerized; also called Ho Ab I336_10E
Ho/Con_1a: 107 % of control

B28: GpH7-B3 variant I332_12R/GpL16-k0 (antibody, human IgG1, kappa)
heavy: not shown
light: B1 light
notes: homodimerized; also called Ho Ab I332_12R
Ho/Con_1a: 93.2 % of control

B29: GpH7-B3 variant L234_03V/GpL16-k0 (antibody, human IgG1, kappa)
heavy: not shown
light: B1 light
notes: homodimerized; also called Ho Ab L234_03V
Ho/Con_1a: 98.2 % of control

B30: GpH7-B3 variant H268_14T/GpL16-k0 (antibody, human IgG1, kappa)
heavy: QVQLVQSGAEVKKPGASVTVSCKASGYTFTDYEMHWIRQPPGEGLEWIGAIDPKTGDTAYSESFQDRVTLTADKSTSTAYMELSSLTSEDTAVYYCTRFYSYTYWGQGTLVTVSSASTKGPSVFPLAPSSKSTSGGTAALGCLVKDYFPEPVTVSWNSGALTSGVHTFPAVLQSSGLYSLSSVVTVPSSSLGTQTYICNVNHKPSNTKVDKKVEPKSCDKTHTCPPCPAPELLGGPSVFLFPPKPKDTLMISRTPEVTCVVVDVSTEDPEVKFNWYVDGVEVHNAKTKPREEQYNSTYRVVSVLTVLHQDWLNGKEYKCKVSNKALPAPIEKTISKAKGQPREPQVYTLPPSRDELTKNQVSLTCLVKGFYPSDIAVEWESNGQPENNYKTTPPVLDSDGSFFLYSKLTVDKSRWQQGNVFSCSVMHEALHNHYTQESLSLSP
light: B1 light
notes: homodimerized; also called Ho Ab H268_14T
Ho/Con_1a: 109 % of control

B31: GpH7-B3 variant L328_10E/GpL16-k0 (antibody, human IgG1, kappa)
heavy: not shown
light: B1 light
notes: homodimerized; also called Ho Ab L328_10E
Ho/Con_1a: 101 % of control

B32: GpH7-B3 variant I336_02A/GpL16-k0 (antibody, human IgG1, kappa)
heavy: not shown
light: B1 light
notes: homodimerized; also called Ho Ab I336_02A
Ho/Con_1a: 103 % of control

B33: GpH7-B3 variant K334_06M/GpL16-k0 (antibody, human IgG1, kappa)
heavy: not shown
light: B1 light
notes: homodimerized; also called Ho Ab K334_06M
Ho/Con_1a: 104 % of control

B34: GpH7-B3 variant H268_12R/GpL16-k0 (antibody, human IgG1, kappa)
heavy: not shown
light: B1 light
notes: homodimerized; also called Ho Ab H268_12R
Ho/Con_1a: 105 % of control

B35: GpH7-B3 variant P238_03V/GpL16-k0 (antibody, human IgG1, kappa)
heavy: not shown
light: B1 light
notes: homodimerized; also called Ho Ab P238_03V
Ho/Con_1a: 97.9 % of control

B36: GpH7-B3 variant P238_08L/GpL16-k0 (antibody, human IgG1, kappa)
heavy: not shown
light: B1 light
notes: homodimerized; also called Ho Ab P238_08L
Ho/Con_1a: 100 % of control

B37: GpH7-B3 variant P238_10E/GpL16-k0 (antibody, human IgG1, kappa)
heavy: not shown
light: B1 light
notes: homodimerized; also called Ho Ab P238_10E
Ho/Con_1a: 91.8 % of control

B38: GpH7-B3 variant K326_18N/GpL16-k0 (antibody, human IgG1, kappa)
heavy: not shown
light: B1 light
notes: homodimerized; also called Ho Ab K326_18N
Ho/Con_1a: 102 % of control

B39: GpH7-B3 variant P271_06M/GpL16-k0 (antibody, human IgG1, kappa)
heavy: not shown
light: B1 light
notes: homodimerized; also called Ho Ab P271_06M
Ho/Con_1a: 102 % of control

B40: GpH7-B3 variant H268_02A/GpL16-k0 (antibody, human IgG1, kappa)
heavy: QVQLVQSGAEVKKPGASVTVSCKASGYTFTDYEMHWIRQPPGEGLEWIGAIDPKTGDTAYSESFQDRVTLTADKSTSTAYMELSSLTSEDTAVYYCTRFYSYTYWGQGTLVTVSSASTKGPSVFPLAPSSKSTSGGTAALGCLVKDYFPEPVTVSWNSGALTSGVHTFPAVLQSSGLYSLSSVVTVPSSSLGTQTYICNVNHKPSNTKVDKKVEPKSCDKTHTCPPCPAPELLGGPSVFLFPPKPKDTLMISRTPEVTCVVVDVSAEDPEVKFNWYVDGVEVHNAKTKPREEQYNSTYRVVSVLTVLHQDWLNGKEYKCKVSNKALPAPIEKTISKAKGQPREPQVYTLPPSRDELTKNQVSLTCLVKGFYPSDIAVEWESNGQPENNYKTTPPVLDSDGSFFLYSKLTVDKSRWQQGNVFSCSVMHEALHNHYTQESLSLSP
light: B1 light
notes: homodimerized; also called Ho Ab H268_02A
Ho/Con_1a: 106 % of control

B41: GpH7-B3 variant P271_12R/GpL16-k0 (antibody, human IgG1, kappa)
heavy: not shown
light: B1 light
notes: homodimerized; also called Ho Ab P271_12R
Ho/Con_1a: 101 % of control

B42: GpH7-B3 variant P271_20W/GpL16-k0 (antibody, human IgG1, kappa)
heavy: not shown
light: B1 light
notes: homodimerized; also called Ho Ab P271_20W
Ho/Con_1a: 102 % of control

B43: GpH7-B3 variant G236_20W/GpL16-k0 (antibody, human IgG1, kappa)
heavy: not shown
light: B1 light
notes: homodimerized; also called Ho Ab G236_20W; GpH7-B3-03-20W/GpL16-k0
Ho/Con_1a: 104 % of control

B44: GpH7-B3 variant H268_07I/GpL16-k0 (antibody, human IgG1, kappa)
heavy: not shown
light: B1 light
notes: homodimerized; also called Ho Ab H268_07I
Ho/Con_1a: 106 % of control

B45: GpH7-B3 variant K326_16H/GpL16-k0 (antibody, human IgG1, kappa)
heavy: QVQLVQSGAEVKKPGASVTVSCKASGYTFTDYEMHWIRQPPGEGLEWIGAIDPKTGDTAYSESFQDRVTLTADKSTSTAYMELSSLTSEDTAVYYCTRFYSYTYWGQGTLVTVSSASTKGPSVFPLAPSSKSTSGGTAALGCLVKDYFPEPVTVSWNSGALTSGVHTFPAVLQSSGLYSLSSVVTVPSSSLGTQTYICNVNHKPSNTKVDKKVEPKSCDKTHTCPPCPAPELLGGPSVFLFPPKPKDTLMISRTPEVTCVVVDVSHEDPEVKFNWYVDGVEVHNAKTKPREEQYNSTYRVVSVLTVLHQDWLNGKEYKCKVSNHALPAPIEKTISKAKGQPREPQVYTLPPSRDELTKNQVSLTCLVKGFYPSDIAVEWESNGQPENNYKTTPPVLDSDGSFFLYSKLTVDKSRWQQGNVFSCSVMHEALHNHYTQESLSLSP
light: B1 light
notes: homodimerized; also called Ho Ab K326_16H
Ho/Con_1a: 101 % of control

B46: GpH7-B3 variant P238_15Y/GpL16-k0 (antibody, human IgG1, kappa)
heavy: not shown
light: B1 light
notes: homodimerized; also called Ho Ab P238_15Y
Ho/Con_1a: 99 % of control

B47: GpH7-B3 variant I336_06M/GpL16-k0 (antibody, human IgG1, kappa)
heavy: not shown
light: B1 light
notes: homodimerized; also called Ho Ab I336_06M
Ho/Con_1a: 104 % of control

B48: GpH7-B3 variant E333_13S/GpL16-k0 (antibody, human IgG1, kappa)
heavy: not shown
light: B1 light
notes: homodimerized; also called Ho Ab E333_13S
Ho/Con_1a: 101 % of control

B49: GpH7-B3 variant H268_08L/GpL16-k0 (antibody, human IgG1, kappa)
heavy: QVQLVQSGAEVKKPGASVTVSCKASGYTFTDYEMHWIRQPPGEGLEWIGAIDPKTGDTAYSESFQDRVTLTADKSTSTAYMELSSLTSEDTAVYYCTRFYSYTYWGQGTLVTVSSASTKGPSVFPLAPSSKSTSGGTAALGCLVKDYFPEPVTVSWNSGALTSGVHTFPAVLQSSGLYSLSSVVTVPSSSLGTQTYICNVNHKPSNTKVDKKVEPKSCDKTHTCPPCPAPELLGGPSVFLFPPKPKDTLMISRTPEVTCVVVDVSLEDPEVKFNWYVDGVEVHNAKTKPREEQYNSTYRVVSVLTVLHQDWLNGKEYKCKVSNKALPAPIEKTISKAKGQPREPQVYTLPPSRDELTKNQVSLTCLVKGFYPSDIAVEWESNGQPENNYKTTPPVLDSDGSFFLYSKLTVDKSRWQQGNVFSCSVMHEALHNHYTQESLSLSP
light: B1 light
notes: homodimerized; also called Ho Ab H268_08L
Ho/Con_1a: 105 % of control

B50: GpH7-B3 variant L234_04F/GpL16-k0 (antibody, human IgG1, kappa)
heavy: not shown
light: B1 light
notes: homodimerized; also called Ho Ab L234_04F
Ho/Con_1a: 93.5 % of control

B51: GpH7-B3 variant E333_11K/GpL16-k0 (antibody, human IgG1, kappa)
heavy: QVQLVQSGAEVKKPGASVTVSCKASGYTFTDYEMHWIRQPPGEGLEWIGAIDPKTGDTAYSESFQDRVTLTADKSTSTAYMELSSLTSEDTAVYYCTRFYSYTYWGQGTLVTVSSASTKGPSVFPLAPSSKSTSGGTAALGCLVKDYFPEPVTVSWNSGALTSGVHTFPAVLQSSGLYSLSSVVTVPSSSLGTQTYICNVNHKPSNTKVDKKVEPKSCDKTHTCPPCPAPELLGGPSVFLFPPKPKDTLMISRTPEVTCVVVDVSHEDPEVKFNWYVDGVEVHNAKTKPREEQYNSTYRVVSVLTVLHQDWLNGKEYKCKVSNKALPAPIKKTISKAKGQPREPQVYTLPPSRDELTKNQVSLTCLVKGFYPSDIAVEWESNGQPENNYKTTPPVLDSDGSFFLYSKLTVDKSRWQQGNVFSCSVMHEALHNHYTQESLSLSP
light: B1 light
notes: homodimerized; also called Ho Ab E333_11K
Ho/Con_1a: 95.8 % of control

B52: GpH7-B3 variant K334_20W/GpL16-k0 (antibody, human IgG1, kappa)
heavy: not shown
light: B1 light
notes: homodimerized; also called Ho Ab K334_20W
Ho/Con_1a: 104 % of control

B53: GpH7-B3 variant P238_04F/GpL16-k0 (antibody, human IgG1, kappa)
heavy: not shown
light: B1 light
notes: homodimerized; also called Ho Ab P238_04F
Ho/Con_1a: 98.7 % of control

B54: GpH7-B3 variant H268_05P/GpL16-k0 (antibody, human IgG1, kappa)
heavy: not shown
light: B1 light
notes: homodimerized; also called Ho Ab H268_05P
Ho/Con_1a: 108 % of control

B55: GpH7-B3 variant I336_18N/GpL16-k0 (antibody, human IgG1, kappa)
heavy: not shown
light: B1 light
notes: homodimerized; also called Ho Ab I336_18N
Ho/Con_1a: 104 % of control

B56: GpH7-B3 variant K326_14T/GpL16-k0 (antibody, human IgG1, kappa)
heavy: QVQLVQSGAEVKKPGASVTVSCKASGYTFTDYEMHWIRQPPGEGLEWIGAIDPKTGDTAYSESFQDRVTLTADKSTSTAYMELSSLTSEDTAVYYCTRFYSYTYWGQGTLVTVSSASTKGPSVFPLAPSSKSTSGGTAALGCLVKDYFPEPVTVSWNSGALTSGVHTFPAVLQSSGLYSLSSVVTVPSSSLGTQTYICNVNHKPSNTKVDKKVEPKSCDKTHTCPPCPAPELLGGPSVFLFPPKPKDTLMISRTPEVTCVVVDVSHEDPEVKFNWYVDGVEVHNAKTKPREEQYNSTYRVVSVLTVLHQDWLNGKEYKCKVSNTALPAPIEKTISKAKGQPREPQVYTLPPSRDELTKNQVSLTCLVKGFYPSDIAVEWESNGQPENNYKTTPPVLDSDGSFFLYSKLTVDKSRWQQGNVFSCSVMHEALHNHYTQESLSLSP
light: B1 light
notes: homodimerized; also called Ho Ab K326_14T
Ho/Con_1a: 103 % of control

B57: GpH7-B3 variant L328_03V/GpL16-k0 (antibody, human IgG1, kappa)
heavy: not shown
light: B1 light
notes: homodimerized; also called Ho Ab L328_03V
Ho/Con_1a: 99.2 % of control

B58: GpH7-B3 variant L234_07I/GpL16-k0 (antibody, human IgG1, kappa)
heavy: not shown
light: B1 light
notes: homodimerized; also called Ho Ab L234_07I
Ho/Con_1a: 99.5 % of control

B59: GpH7-B3 variant H268_20W/GpL16-k0 (antibody, human IgG1, kappa)
heavy: not shown
light: B1 light
notes: homodimerized; also called Ho Ab H268_20W
Ho/Con_1a: 106 % of control

B60: GpH7-B3 variant E333_14T/GpL16-k0 (antibody, human IgG1, kappa)
heavy: not shown
light: B1 light
notes: homodimerized; also called Ho Ab E333_14T
Ho/Con_1a: 98.7 % of control
